B1: furin-HA (mouse furin tagged with the HA epitope), expressed stably in RBL cells (enzyme, UniProt P23188 108-793, looked up)
chain: DVYQEPTDPKFPQQWYLSGVTQRDLNVKEAWAQGFTGHGIVVSILDDGIEKNHPDLAGNYDPGASFDVNDQDPDPQPRYTQMNDNRHGTRCAGEVAAVANNGVCGVGVAYNARIGGVRMLDGEVTDAVEARSLGLNPNHIHIYSASWGPEDDGKTVDGPARLAEEAFFRGVSQGRGGLGSIFVWASGNGGREHDSCNCDGYTNSIYTLSISSATQFGNVPWYSEACSSTLATTYSSGNQNEKQIVTTDLRQKCTESHTGTSASAPLAAGIIALTLEANKNLTWRDMQHLVVQTSKPAHLNADDWATNGVGRKVSHSYGYGLLDAGAMVALAQNWTTVAPQRKCIVEILVEPKDIGKRLEVRKAVTACLGEPNHITRLEHVQARLTLSYNRRGDLAIHLISPMGTRSTLLAARPHDYSADGFNDWAFMTTHSWDEDPAGEWVLEIENTSEANNYGTLTKFTLVLYGTAPEGLSTPPESSGCKTLTSSQACVVCEEGYSLHQKSCVQHCPPGFIPQVLDTHYSTENDVEIIRASVCTPCHASCATCQGPAPTDCLSCPSHASLDPVEQTCSRQSQSSRESRPQQQPPALRPEVEMEPRLQAGLASHLPEVLAGLSCLIIVLIFGIVFLFLHRCSGFSFRGVKVYTMDRGLISYKGLPPEAWQEECPSDSEEDEGRGERTAFIKDQSAL
B2: furin-FLAG (mouse furin tagged with the FLAG epitope), expressed stably in RBL cells (enzyme)
chain: B1 chain

Molecular target: the molecule itself
Test: cross-linking

Row | Protein | stoichiometry N
1 | B1 | 2
2 | B2 | 2
